Measured values: ChEMBL document CHEMBL2074257, “Expression cloning of a Na+-independent aromatic amino acid transporter with structural similarity to H+/monocarboxylate transporters” (J Biol Chem, 2001)

T1: Monocarboxylate transporter 10 (Rattus norvegicus, UniProt Q91Y77)
T1 sequence (Q91Y77 whole entry): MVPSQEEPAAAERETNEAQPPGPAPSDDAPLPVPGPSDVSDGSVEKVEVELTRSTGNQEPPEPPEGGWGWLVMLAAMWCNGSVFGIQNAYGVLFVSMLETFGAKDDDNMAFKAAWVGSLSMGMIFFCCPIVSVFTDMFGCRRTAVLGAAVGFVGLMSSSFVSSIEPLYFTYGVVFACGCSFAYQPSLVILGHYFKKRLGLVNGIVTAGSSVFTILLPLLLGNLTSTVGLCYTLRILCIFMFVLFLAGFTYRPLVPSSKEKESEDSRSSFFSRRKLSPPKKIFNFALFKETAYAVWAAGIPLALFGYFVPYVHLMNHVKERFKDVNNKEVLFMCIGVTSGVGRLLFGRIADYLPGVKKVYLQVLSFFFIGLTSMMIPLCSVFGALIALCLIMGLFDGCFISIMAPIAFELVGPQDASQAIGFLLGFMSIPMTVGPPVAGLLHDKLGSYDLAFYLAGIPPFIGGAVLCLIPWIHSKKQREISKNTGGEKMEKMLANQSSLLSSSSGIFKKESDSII

B1: Monocarboxylate transporter 10 (Rattus norvegicus), Q91Y77 (protein)
chain: T1 sequence (Q91Y77 whole entry)

Experiments:
[1] = target: T1, Monocarboxylate transporter 10; assay: TP_TRANSPORTER: inhibition of L-tryptophan uptake in Xenopus laevis oocytes; type: functional, cell-based, Oocyte
[2] = substrate: N[C@@H](Cc1c[nH]c2ccccc12)C(=O)O; conditions: Xenopus laevis; Oocyte
[3] = substrate: N[C@@H](Cc1ccc(O)c(O)c1)C(=O)O; conditions: Xenopus laevis; Oocyte
[4] = substrate: N[C@@H](Cc1ccc(O)cc1)C(=O)O; conditions: Xenopus laevis; Oocyte
[5] = substrate: N[C@@H](Cc1ccccc1)C(=O)O; conditions: Xenopus laevis; Oocyte

Molecule | Ki [1] [mM] | Km [2] [mM] | Km [3] [mM] | Km [4] [µM] | Km [5] [mM]
CN[C@@H](Cc1c[nH]c2ccccc12)C(=O)O [ABRINE] | 3.1 | – | – | – | –
CC(=O)N[C@@H](Cc1c[nH]c2ccccc12)C(=O)O [ACETYLTRYPTOPHAN] | 1.5 | – | – | – | –
B1 | – | 3.72 | 6.43 | 2590 | 7.02
